According to paper PMC11375011, “Inducible auto-phosphorylation regulates a widespread family of nucleotidyltransferase toxins” (Nature Communications, 2024):
Entries after “also recorded” stand apart in the source; their conditions may differ.

Target: MenA1
Details: sites T39

For MenT1, which “other: observed/calculated Stokes radius ratio against the heterotrimer” value is on record?
Its value is “weaker; reference 0.97; also recorded: same; reference 0.97”.
